Target: T1, NPY-Y2 receptor (Homo sapiens, UniProt P49146)
T1 construct: the appropriate cells (SK-N-MC for NPY-Y1; host or cells: SK-N-BE2 human neuroblastoma cells (membrane homogenate)
T1 sequence (P49146 1-381): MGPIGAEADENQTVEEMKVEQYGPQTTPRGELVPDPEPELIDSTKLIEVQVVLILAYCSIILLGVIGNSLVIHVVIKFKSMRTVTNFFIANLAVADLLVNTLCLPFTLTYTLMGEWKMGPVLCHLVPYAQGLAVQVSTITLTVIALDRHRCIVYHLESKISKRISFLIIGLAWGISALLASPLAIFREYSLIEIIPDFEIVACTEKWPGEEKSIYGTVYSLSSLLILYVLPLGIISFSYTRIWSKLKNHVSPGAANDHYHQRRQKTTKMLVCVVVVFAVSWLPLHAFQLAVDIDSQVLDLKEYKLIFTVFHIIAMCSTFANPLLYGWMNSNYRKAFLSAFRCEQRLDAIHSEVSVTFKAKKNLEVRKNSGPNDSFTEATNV
Assay: In vitro radioligand NPY-Y2 receptor binding assay ([125I]PYY, SK-N-BE2 cell membranes)
Details: [125I]PYY displacement
Method: In Vitro Radioligand NPY-Y1 and NPY-Y2 Receptor Binding Assays
Human neuroblastoma cell lines, SK-N-MC and SK-N-BE2 (American Type Culture Collection, Rockville, Md., USA), expressing the NPY-Y1 and NPY-Y2 receptors, respectfully, were cultured in EMEM containing 10% fetal calf serum and 5% chicken embryo extract, maintained at 37° C. in a humidified atmosphere of and 95% air and 5% CO2.
For the in vitro NPY-Y1 and NPY-Y2 radioligand binding assays, the appropriate cells (SK-N-MC for NPY-Y1; SK-N-BE2 for NPY-Y2) were harvested and then homogenized in 20 ml of ice-cold 50 mM Tris-HCl with a Brinkman Polytron (Westbury, N.Y., USA) (setting 6, 15 sec). The homogenates were washed twice by centrifugation (39,000 g/10 min), and the final pellets were resuspended in 50 mM Tris-HCl, containing 2.5 mM MgCl2, 0.1 mg/ml bacitracin (Sigma Chemical, St. Louis, Mo., USA), and 0.1% BSA.

**Q.** With “[Camptothecin-rvD/L-Asp-Suc-Tyr^1, Nle^17, A6c^31, 4Hyp^34]hNPY(1-36)-NH2 [93/93A]” as the substance, how does the Ki read?
**A.** > 1000 nM

**Q.** Which Ki does the source give for “[camptothecin-rvD/Lasp-Suc-Tyr^1, Nle^17, 4Hyp^34]hNPY(1-36)-NH2 [Example 92/92A]” here?
**A.** > 1000 nM
